Results reported in article PMC2780581 (Biochemistry, 2008).

Molecular target: the molecule itself
Test: SEC

B1: (S)-2-hydroxypropylphosphonic acid epoxidase from Pseudomonas syringae (enzyme, Pseudomonas syringae PB-5123, UniProt Q9JN69 1-190, looked up)
chain: MDVRTLAVGKAHLEALLATRKMTLEHLQDVRHDATQVYFDGLEHLQNVAQYLAIPLSEFFVGQTQSDLDDGVKIARRNGGFKREEIRGGVHYYTYEHLVTTNQDPGLMALRLDLHSDDEQPLRLNGGHGSREIVYVTRGAVRVRWVGDNDELKEDVLNEGDSIFILPNVPHSFTNHVGGAKSEIIAINYG
modifications: Tyr95 highly likely post-translationally hydroxylated to DOPA
In the case of B1, the “stoichiometry N” value is reported as 3.
